Measured values published in patent US20240174744A1 (SCIRHOM, published 2024).

B1: antibody 16 (antibody, V domains shown)
VH: QVTLKESGPGILQPSQTLSLTCSFSGFSLSTFALGVGWIRQPSGRGLEWLAHIWWDDDKYYNPALKSRLTISKDTSKNHVFLKIANVDTADTATYYCARITTYYYGMDYWGQGTSVTVSS
VL: DIVLSQSPATLSVTPGDSVSLFCRASQSIGNHLHWYQQESHASPRLLIKYASQSISGIPSRFSGSGSGTDFTLSINSVETEDFGMYFCQQSYNWPLTFGAGTKLELK
notes: Mouse IgG, kappa light chain; also called clone #16; m16
B2: antibody 51 (antibody, V domains shown)
VH: QVQLQQSGAELVKPGASVKISCKASGYTFSNYWMNWVKQRPGKGLEWIGQIYPGDGDTKYNGKFKNKATLTADKSSSTAYMQFSSLTSEDSAVYFCARGDLVFVYWGLGTLVTVSA
VL: DVQITQSPSYLAVSPGETITINCRASKNIRKYLAWYQEKPGKTNKLLIYSGSTSQSGVPSRFSGSGSGTDFTLTISSLEPEDFAMYYCQQHNEYPYTFGGGTKLEIK
notes: Mouse IgG, kappa light chain; also called clone #51
B3: antibody 34 (antibody, V domains shown)
VH: QVTLKESGPGILQPSQTLSLTCSFSGFSLSTFSLGVGWIRQSSGKGLEWLAHIWWDDEKYYNPALKSRLTISKDTSKNQVFLKIANVDAADTATYYCARAYYSKSYYALDYWGQGTSVTVSS
VL: DIQMTQSPSSLSASLGERVSLTCRASQEISGYLSWLQQKPDGTIKRLIYAASTLDSGVPKRFSGSRSGSDYSLAISSLESEDFADYYCLQYANFPFTFGSGTKLEIK
notes: Mouse IgG, kappa light chain; also called clone #34; m34
B4: antibody 48 (antibody, V domains shown)
VH: QVQLQQSGTELVRPGTSVKVSCKASGYAFTNYLIEWVKQRPGQGLEWIGVINPGSGFTKYNEKFKGKATLTADKSSSTVYMHLSSLTSEDSAVYFCARGLYRAMDYWGQGTSVTVSS
VL: DIQMTQSPASQSASLGESVTITCLASQTIATWLAWYQQKPGKSPQLLIYGATTLADGVPSRFSGGGSGTKFSFKISSLQAEDFVSYYCQQLYSTPYTFGGGTKLEIK
notes: Mouse IgG, kappa light chain; also called clone #48; purified antibody 48
B5: antibody 47 (antibody, V domains shown)
VH: QVQLQQSGAELVRPGTSVKVSCKASGYAFTNYLIEWVKQRPGQGLEWIGVINPGSGFTNYNEKFKGKAILNADKSSSTAYMQLISLTSEDSAVYFCARDLKRAMDHWGQGTSVTVSS
VL: DIQMTQSPASQSASLGESVTITCLASQTIGTWLAWYQQKPGKSPQLLIHAATSLADGVPSRFSGSGSGTKFSFKISSLQAEDFVSYYCQQIYSSPYTFGGGTKLEIK
notes: Mouse IgG, kappa light chain; also called clone #47
B6: antibody 50 (antibody, V domains shown)
VH: QVQLQQSGAELVRPGASVKVSCKASGYAFSNYLIEWVKQRPGQGLEWIGVINPGSGFTKYNEKFKGKATLTADKSSSTAYMQLSSLTSEDSAVYFCARGLYRAMDYWGQGTSVTVSS
VL: DIQMTQSPASQSASLGESVTITCLASQTIGTWLAWYQQKPGKSPQLLIYAAASLADGVPSRFSGGGSGTKFSFKISSLQAEDFVNYYCQQIYSTPYTFGGGTKLEIK
notes: Mouse IgG, kappa light chain; also called clone #50; purified antibody 50
B7: antibody 43 (antibody, V domains shown)
VH: QVALKESGPGILQPSQTLSLTCSFSGFSLSTFGMGVGWIRQSSGKGLEWLANIWWDDDKYYNPALKSRLTISKDASKNQAFLKIANVDTADTATYYCARIGNYGSNYWYFDVWGTGTTVTVSS
VL: QIVLTQSPAIMSASPGERVTMTCSANSRISYMYWYQQKPGSSPRLLIYDTSNLASGVPVRFSGSGSGTSYSLTISRMEAEDAATYNCQQWSSYPLTFGAGTKLELK
notes: Mouse IgG, kappa light chain; also called clone #43
B8: antibody 42 (antibody, V domains shown)
VH: QVTLKESGPGILQPSQTLSLTCSLSGFSLSTFGRGVGWIRQPSGKGLEWLAHIWWDDEKYYNPALKSRLTISKDTSKNQVFLRIANVDTADTATYYCARIQNYGSNYWYFDVWGTGTTVTVSS
VL: LIVLTQSPAIMSASPGEKVTMTCGATSRISYMFWYQQKPGSSPRVLIYDTSNLASGVPVRFSGSGSGTSYSLTISRVEAEDVATYYCQQWNSYPLTFGAGTKLELK
notes: Mouse IgG, kappa light chain; also called clone #42; m42
B9: antibody 5 (antibody, V domains shown)
VH: QVTLKESGPGILQPSQTLSLTCSFSGFSLSTFGMGVGWIRQPSGKGLEWLAHIWWDDEKYYNSALKSRLTISKATSKNQAFLKIANVDTADTATYYCARISNYGSNYWYFNVWGTGTTVTVSS
VL: QVVLTQSPALMSASPGEKVTMTCSAGSSVSCMYWYQQKPGSSPRVLIYDTSNLASGVPARFTGSGSGTSYSLTISRMEAEDAASYYCQQWNSYPLTFGAGTKLELK
notes: Mouse IgG, kappa light chain; also called clone #5; purified antibody 5
B10: antibody 54 (antibody, V domains shown)
VH: QVTLKESGPGILQPSQTLSLTCSFSGFSLSTFGLGVGWIRQPSGKGLECLAHIWWDDDKYSNPALKSRLTISKDTSKNQVFLKIANVDSADTATYFCARILNYGSNYWYFDVWGTGTTVTVSS
VL: QIVLTQSPALMSASPGEKVTMTCSASSSISYMYWYQQKPGSSPRLLIYDTSNLASGVPVRFSGSGSGTSFSLTVSRMEAEDAATYYCQQWNSYPLTFGAGTKLELK
notes: Mouse IgG, kappa light chain; also called clone #54
B11: antibody 44 (antibody, V domains shown)
VH: QVTLKESGPGILQPSQTLSLTCSFSGFSLSTFGMGVGWIRQPSEKGLEWLAHIWWDDDKYYNPALKSRLTISKDTSKNQIFLKITNVDTAETATYYCSRIGNYGSNYWYFDVWGTGTTVTVSS
VL: QIVLTQSPAVMSASPGEKVTMTCTASSSVYYMYWYQQTPGSSPRLLIYDTSNLASGVPVRFSGSGSGTSYSLTISRMEAEDAATYYCQQWNTYPLTFGAGTKLELK
notes: Mouse IgG, kappa light chain; also called clone #44; m44
B12: antibody 57 (antibody, V domains shown)
VH: QVTLKESGPGILQPSQTLSLTCSFSGFSLSTFGMGVGWIRQPSGKGLEWLAHIWWDDDKYYNPALKSRLTISKDTSKNQIFLKIANVDTADSATFYCARIENYGSNYWYFDVWGTGTTVTVSS
VL: QIVLTQSPAIMSASPGEKVTMTCSASSSVSYMYWYQQKPGSSPRVLIYDTSNLASGVPVRFSGSGSGTSYSLTVSRMEAEDAATYYCQQWNSYPLTFGAGTKLELK
notes: Mouse IgG, kappa light chain; also called clone #57
B13: antibody 22 (antibody, V domains shown)
VH: QVTLKESGPGILQPSQTLSLTCSFSGFSLSTFGMGVGWIRQPSGKGLEWLAHIWWDDEKYYNSALKSRLTISKATSKNQVFLKIANVDTADTATYYCARISNYGSNYWYFNVWGTGTTVTVSS
VL: QVVLTQSPALMSASPGEKVTMTCSAGSSVSYMYWYQQKPGSSPRVLIYDTSNLASGVPARFTGSGSGTSYSLTISRMEAEDAATYYCQQWNSYPLTFGAGTKLELK
notes: Mouse IgG, kappa light chain; also called clone #22; m22
B14: antibody 49 (antibody, V domains shown)
VH: QVTLKESGPGILQPSQTLSLTCSFSGFSLSTFGMGVGWIRQPSGKGLEWLAHIWWDDDKYYNPALQSRLTVSKDTAKNQVFLKIANVDTADTAIYYCARVGNYGSNYWYFAVWGTGTTVTVSS
VL: QIVLTQSPAIMSASPGEKVTMTCSASSSVSYMYWYQQKPGSSPRLLIYDTSNLASGVPVRFSGSGSGTSYSLTISRMEAEDAATYYCQQWNSYPLTFGAGTKLELK
notes: Mouse IgG, kappa light chain; also called clone #49
B15: antibody 56 (antibody, V domains shown)
VH: QVTLKESGPGILQPSQTLSLTCSFSGFSLSTFGMGVGWIRQPSGKGLEWLTNIWWDDDKYYNSVLKSRLTISKDTSKNQVFLKIANVDTADTATYYCARIAAYGSNYWYFDVWGTGTTVTVSS
VL: QIVLTQSPAIMSASPGEKVTMTCSASSSVSYMYWYQQKPGSSPRVLIYDTSNLSSGVPVRFSGSGSGTSYSLTISRMEAEDAATYYCQQWSSYPLTFGAGTKLELK
notes: Mouse IgG, kappa light chain; also called clone #56
B16: antibody 46 (antibody, V domains shown)
VH: QVTLKESGPGILQPSQTLSLTCSFSGFSLSTFGMGVGWIRQPSGKGLEWLAHIWWDDDNYYNQALKSRLTISKDNTKNQVFLNIANVDTADTATYYCARIRSYDYDVRYAMDYWGQGTSVTVSS
VL: DIKMTQSPSSMYASLRERVTITCKASQDINSYLSWFQQKPGKSPKTLIYRANRLVDGVPSRFSGSGSGQDYSLTISSLEYEDLGIYYCQQYYEFPLTFGAGTRLELK
notes: Mouse IgG, kappa light chain; also called clone #46

These binders were tested against T1, miR2-FL-WT-FLAG (mouse iRhom2 full length wild type C-terminally tagged with the triple-FLAG epitope) (mouse, UniProt Q80WQ6 1-827) (assay: FACS, MEF-DKO-miR2-FL-WT-FLAG cells).
T1 construct: also called expressed by MEF-DKO-miR2-FL-WT-FLAG cells
T1 sequence: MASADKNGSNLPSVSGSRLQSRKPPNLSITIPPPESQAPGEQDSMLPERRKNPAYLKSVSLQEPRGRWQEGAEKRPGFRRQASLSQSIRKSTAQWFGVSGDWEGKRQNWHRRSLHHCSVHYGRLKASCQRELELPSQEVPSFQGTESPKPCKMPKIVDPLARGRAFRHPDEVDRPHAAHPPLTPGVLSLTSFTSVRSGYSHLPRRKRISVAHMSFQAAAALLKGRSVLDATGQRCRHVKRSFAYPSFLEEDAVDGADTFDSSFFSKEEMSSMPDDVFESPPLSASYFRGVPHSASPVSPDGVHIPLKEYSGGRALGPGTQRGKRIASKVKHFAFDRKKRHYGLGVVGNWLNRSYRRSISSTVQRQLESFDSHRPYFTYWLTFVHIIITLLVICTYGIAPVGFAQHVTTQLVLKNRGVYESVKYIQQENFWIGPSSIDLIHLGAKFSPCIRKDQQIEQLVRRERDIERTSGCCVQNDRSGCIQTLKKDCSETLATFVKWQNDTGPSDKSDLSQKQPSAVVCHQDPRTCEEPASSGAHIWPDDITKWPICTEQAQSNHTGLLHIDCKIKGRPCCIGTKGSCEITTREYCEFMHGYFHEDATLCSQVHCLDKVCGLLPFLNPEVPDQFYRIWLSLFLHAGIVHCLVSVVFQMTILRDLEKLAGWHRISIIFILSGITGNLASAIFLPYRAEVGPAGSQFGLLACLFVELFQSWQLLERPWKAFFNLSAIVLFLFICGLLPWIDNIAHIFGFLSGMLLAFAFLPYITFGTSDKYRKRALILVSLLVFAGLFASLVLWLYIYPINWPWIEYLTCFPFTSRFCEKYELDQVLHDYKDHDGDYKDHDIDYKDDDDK
Procedure: In brief, immortalized MEF-DKO-EV control cells, MEF-DKO-hiR2-FL-WT-FLAG cells and MEF-DKO-miR2-FL-WT-FLAG cells were harvested with 10 mM EDTA in PBS, washed and resuspended in FACS buffer (PBS, 3% FBS, 0.05% sodium azide), and seeded in Nunc U-bottom 96-well plates (Thermo Fisher Scientific, USA) at approximately 3×10⁵ cells per well. To pellet cells and remove supernatants, the plates were centrifuged at 1,500 rpm and 4° C. for 3 minutes. For primary staining, cells were resuspended in 100 μl per well of either FACS buffer alone (controls), mouse monoclonal anti-FLAG IgG (Sigma-Aldrich, USA) at 3 μg/ml FACS buffer or the antibodies of the present disclosure also at 3 μg/ml FACS buffer and incubated on ice for 1 hour. Afterwards, plates were centrifuged at 1,500 rpm and 4° C. for 3 minutes and washed twice with 200 μl per well of FACS buffer. For secondary staining, cells were spun down and resuspended in 100 μl per well of PE-conjugated goat anti-mouse IgG F(ab′)2 detection fragment (Dianova, Germany) diluted 1:100 in FACS buffer. Protected from light, the cell suspensions were incubated on ice for 1 hour. Plates were then centrifuged at 1,500 rpm and 4° C. for 3 minutes and washed three times with 200 μl per well of FACS buffer. Finally, cells were resuspended in 150 μl per well of FACS buffer and analyzed using a BD Accuri™ C6 Plus flow cytometer (Becton Dickinson, Germany).
B1: no binding (tested: 3 µg/ml). B2: no binding (tested: 3 µg/ml). B3: no binding (tested: 3 µg/ml). B4: no binding (tested: 3 µg/ml). B5: no binding (tested: 3 µg/ml). B6: no binding (tested: 3 µg/ml). B7: no binding (tested: 3 µg/ml). B8: no binding (tested: 3 µg/ml). B9: no binding (tested: 3 µg/ml). B10: no binding (tested: 3 µg/ml). B11: no binding (tested: 3 µg/ml). B12: no binding (tested: 3 µg/ml). B13: no binding (tested: 3 µg/ml). B14: no binding (tested: 3 µg/ml). B15: no binding (tested: 3 µg/ml). B16: no binding (tested: 3 µg/ml).
